Data on two molecules can be found in publication PMC4137058 (The Journal of Cell Biology, 2014).

Residue numbers refer to the chain shown, from its start. Names and notes keep the numbering of the source.

This test addresses T1, GST-tagged Sac1 (residues 2-460) (Saccharomyces cerevisiae, UniProt P32368 2-460).
T1 sequence (looked up): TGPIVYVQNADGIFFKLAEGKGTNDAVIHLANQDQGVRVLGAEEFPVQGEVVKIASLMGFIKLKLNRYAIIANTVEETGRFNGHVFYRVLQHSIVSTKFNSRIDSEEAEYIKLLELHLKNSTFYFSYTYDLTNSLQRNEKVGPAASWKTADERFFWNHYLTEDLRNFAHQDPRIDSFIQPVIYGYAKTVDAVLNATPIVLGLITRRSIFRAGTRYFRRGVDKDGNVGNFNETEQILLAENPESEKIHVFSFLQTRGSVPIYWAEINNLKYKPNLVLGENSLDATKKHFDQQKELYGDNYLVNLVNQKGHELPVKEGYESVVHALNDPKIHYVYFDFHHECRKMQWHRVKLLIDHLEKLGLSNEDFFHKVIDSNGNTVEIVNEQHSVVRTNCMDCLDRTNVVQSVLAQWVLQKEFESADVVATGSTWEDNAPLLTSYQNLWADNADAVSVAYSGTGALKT
In words: pull-down.

B1: Vps74 (residues 46-345) (domain or fragment, Saccharomyces cerevisiae, UniProt Q06385 46-345, looked up)
chain: NKKIAYDPEESKLRDNINIPTLTLMEEVLLMGLRDREGYLSFWNDSISYALRGCIIIELALRGKIRILDDSARKRFDLSERLIEVIDSSKTGEVLLDETLQLMKNDEPLSISNWIDLLSGETWNLLKINYQLKQVRERLAKGLVDKGVLRTEMKNFFLFDMATHPIADASCKEAIKRRVLSVLVSRNMELSYNEYFPETTSFKIIRTLALICGSYGANVLENVLTTLEYEKRDKAISRAEEIMAQFSQYPFDLEKETELGVSVNLNKEVKEEIENNPGHDLQLEVIAGVFEVFSRMDMLL
Consider B1, for which the binding result is “binds”.

B2: Vps74 (Y260S, N263S, E266S, Y274S, and D278S) (domain or fragment, Saccharomyces cerevisiae, UniProt Q06385 46-345, looked up)
chain: B1 chain with Y215S, N218S, E221S, Y229S, D233S
On to B2, for which the binding result was “binds”.
